Assay results: US20230374526A1, “FORSKOLIN-INDUCIBLE PROMOTERS AND HYPOXIA-INDUCIBLE PROMOTERS” (ASKLEPIOS BIOPHARMACEUTICAL, INC., priority 2020, published 2023)

B1: FORN-pJB42: synthetic forskolin-inducible promoter, SEQ ID NO: 73; 7×cAMPRE and 6×AP1(3) with pJB42 minimal promoter (nucleic acid)
DNA: AATAAAATATCTTTATTTTCATTACATCTGTGTGTTGGTTTTTTGTGTGCCATTGACGTCACGATTTGACGTCAACCATTGACGTCACGATTTGACGTCAACCATTGACGTCACGATTTGACGTCACGATTTGACGTCAACCATTGACTCACGATTTGACTCAACCATTGACTCACGATTTGACTCAACCATTGACTCACGATTTGACTCACGATTCTGACAAATTCAGTATAAAAGCTTGGGGCTGGGGCCGAGCACTGGGGACTTTGAGGGTGGCCAGGCCAGCGTAGGAGGCCAGCGTAGGATCCTGCTGGGAGCGGGGAACTGAGGGAAGCGACGCCGAGAAAGCAGGCGTACCACGGAGGGAGAGAAAAGCTCCGGAAGCCCAGCAGCGGCCACC
modifications: Synp-FORNpJB42
notes: 7×cAMPRE and 6×AP1(3) with pJB42 minimal promoter
B2: Synp-FORNEW: synthetic forskolin-inducible promoter, SEQ ID NO: 62; 7×cAMPRE and 6×AP1(3) with YB-TATA minimal promoter (nucleic acid)
DNA: AATAAAATATCTTTATTTTCATTACATCTGTGTGTTGGTTTTTTGTGTGCCATTGACGTCACGATTTGACGTCAACCATTGACGTCACGATTTGACGTCAACCATTGACGTCACGATTTGACGTCACGATTTGACGTCAACCATTGACTCACGATTTGACTCAACCATTGACTCACGATTTGACTCAACCATTGACTCACGATTTGACTCACGATTGCGATTAATCCATATGCTCTAGAGGGTATATAATGGGGGCCACTAGTCTACTACCAGAAAGCTTGGTACCGAGCTCGGATCCAGCCACC
modifications: Synp-FORNEW
notes: 7×cAMPRE and 6×AP1(3) with YB-TATA minimal promoter
B3: Synp-FORNTATAm6a: synthetic forskolin-inducible promoter, SEQ ID NO: 74; 7×cAMPRE and 6×AP1(3) with TATA-m6A minimal promoter (nucleic acid)
DNA: AATAAAATATCTTTATTTTCATTACATCTGTGTGTTGGTTTTTTGTGTGCCATTGACGTCACGATTTGACGTCAACCATTGACGTCACGATTTGACGTCAACCATTGACGTCACGATTTGACGTCACGATTTGACGTCAACCATTGACTCACGATTTGACTCAACCATTGACTCACGATTTGACTCAACCATTGACTCACGATTTGACTCACGATTTATAAAAGGCAGAGCTCGTTTAGTGAACCGAAGCTTGGACTAAAGCGGACTTGTCTCGAG
modifications: Synp-FORNTATAm6a
notes: 7×cAMPRE and 6×AP1(3) with TATA-m6A minimal promoter

How the values were obtained:
[1] = test system: HEK-293 cells; assay: Optimum inducer concentration to induce expression; type: cell-based, human
[2] = test system: Pro10 cells; assay: Rep78 expression via western blot under second generation forskolin-inducible promoters; type: cell-based; conditions: for Rep78 expression in the presence of forskolin: 10 μM forskolin, 24 hrs; for Rep78 expression in the presence of forskolin / Rep78 expression in the absence of forskolin: western blot; for Rep78 expression in the absence of forskolin: DMSO control
Method: HEK293-T (ATCC-CRL-3216) cell lines were maintained in DMEM plus 10% FBS as described for HEK293 cells. Plasmids to be transfected were linearised and transfected using Lipofectamine 2000 (Invitrogen, 11668027) as per the manufacturer's instructions. The cells were then cultured for 48 hrs in non-selective medium before being switched to selective medium (standard medium plus Blasticidin 5 ug/ml (Thermofisher, A1113902).
Each of the promoters were tested for their ability to induce expression of the Rep78 protein. To eliminate the expression of Rep52, we have mutated the ATG start codon in Rep52 to an AGG. All constructs were synthesized by Genewiz. Pro10 cells were cultured and transfected using lipofectamine 2000 as previously described. 24 hrs after transfection 10 μM forskolin was added to the cells. Control wells were given DMSO as forskolin was dissolved in this carrier. After another 24 hrs the cells were then lysed and lysates were analysed for Rep78 expression via western blot.
Cells are collected in Eppendorf tubes and centrifuged at 300 g for 5 mins in a tabletop centrifuge. Supernatants are discarded and cell pellets are lysed in 1× radioimmunoprecipitation assay (RIPA) buffer, which is made up of RIPA Lysis & Extraction Buffer (Thermofisher, UK, 89900), 100×Halt Protease Inhibitor (Thermofisher, UK, 78445). After addition of the cell lysis buffer all samples are constantly kept on ice. The samples are vortexed and either stored at −20° C. overnight or kept on ice for 30 mins prior to centrifugation at full speed (21,130 g) in the tabletop centrifuge for 20 mins at 4° C. for the removal of any insoluble material. Cell lysates are mixed with 4×LDS loading sample buffer and 10× sample reducing agent (ThermoFisher, UK, NP0007 and NP0004); they are briefly spun down, heated to 95° C. for 10 mins, allowed to cool to 10° C., briefly spun down again and then separated on polyacrylamide gels (NuPAGE Novex 4-12% Bis-Tris Gels, 1.0 mm; ThermoFisher UK, NP0324BOX), which are allowed to reach room temperature before use. The PageRuler™ Prestained NIR Protein Ladder (ThermoFisher, UK, 26635) is run alongside the cell lysates for size comparison purposes. Gels are run at 150V for 1 hour 15 mins using ThermoFisher's XCell SureLock Mini-Cell system. Gels are then transferred to nitrocellulose membranes using the iBlot 2 Dry Blotting System, p0 programme, (ThermoFisher, UK) according to the manufacturer's instructions. Initially, a total protein stain is performed following the manufacturer's instructions (Revert™ 700 Total Protein Stain for Western Blot Normalization; Licor, UK, 926-11011), and this is followed by immunoblotting of the membranes. The membranes are specifically transferred to falcon tubes where they are first blocked with the Licor Odyssey® blocking buffer at room temperature for 1 hour, followed by probing with suitable primary antibodies resuspended in the Licor Odyssey® blocking buffer in a cold room set at 4° C. overnight. The following day membranes are washed 3× in PBS-T (0.05%) for 5 mins each time and then probed with a suitable secondary antibody for 1.5 hours at room temperature. Secondary antibodies typically contain a fluorescent tag for visualisation purposes. Membranes are washed once again 2× in PBS-T (0.05%) for 5 mins each time followed by a final wash in 1×PBS for 5 mins. The membranes are imaged using an Odyssey® Fc Licor imaging system.
The antibodies used in this experiment were: primary antibody: anti-Rep antibody 303.9 clone (Progen, 61069) and Secondary antibody: LICOR anti-mouse 800 nm (LICOR, 926-32210).
We also tested the ability of the AAV helper functions to induce the activity of the best performing promoter FORN-pJB42. Transfections were carried out as previously described. Conditions are as follows, FORN-pJB42 controlling expression of Rep78 was transfected with and without the adenovirus helper functions. […]

| Molecule | Concentration determined to be optimum to induce expression [1] | Rep78 expression in the presence of forskolin [2] | Rep78 expression in the absence of forskolin [2] | Promoter activity (Rep78) in the presence of helper functions, absence of forskolin ([2]; adenovirus helper functions (pHelper), DMSO) | Promoter activity (Rep78) in the presence of helper functions and forskolin ([2]; adenovirus helper functions and 10 μM forskolin) |
| --- | --- | --- | --- | --- | --- |
| C=C[C@@]1(C)CC(=O)[C@]2(O)[C@@]3(C)[C@@H](O)CCC(C)(C)[C@@H]3[C@H](O)[C@H](OC(C)=O)[C@@]2(C)O1 [Forskolin] | about 18 μM | – | – | – | – |
| B1 | – | strong expression | no Rep78 expression | activated | full activity |
| B2 | – | strong expression | no Rep78 expression | – | – |
| B3 | – | strong expression | no Rep78 expression | – | – |
